Source: patent US20170305994A1 (Novo Nordisk, published 2017)

T1: human DR3 (full length, on cells) (human, UniProt Q93038 25-417)
T1 sequence: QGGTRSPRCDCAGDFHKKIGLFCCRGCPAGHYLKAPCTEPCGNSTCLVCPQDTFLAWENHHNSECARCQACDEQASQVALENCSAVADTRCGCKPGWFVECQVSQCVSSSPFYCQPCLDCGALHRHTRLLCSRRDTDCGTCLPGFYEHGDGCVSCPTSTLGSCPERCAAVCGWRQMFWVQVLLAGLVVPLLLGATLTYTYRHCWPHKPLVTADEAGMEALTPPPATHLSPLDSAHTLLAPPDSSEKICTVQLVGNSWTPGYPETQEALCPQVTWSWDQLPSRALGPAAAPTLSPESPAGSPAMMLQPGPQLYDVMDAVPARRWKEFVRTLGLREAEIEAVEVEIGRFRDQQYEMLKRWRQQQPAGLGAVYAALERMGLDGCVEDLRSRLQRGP

T2: cynomolgus DR3 (on HEK293 reporter cells) (cynomolgus, UniProt A0A2K5WJ09 98-464)
T2 sequence: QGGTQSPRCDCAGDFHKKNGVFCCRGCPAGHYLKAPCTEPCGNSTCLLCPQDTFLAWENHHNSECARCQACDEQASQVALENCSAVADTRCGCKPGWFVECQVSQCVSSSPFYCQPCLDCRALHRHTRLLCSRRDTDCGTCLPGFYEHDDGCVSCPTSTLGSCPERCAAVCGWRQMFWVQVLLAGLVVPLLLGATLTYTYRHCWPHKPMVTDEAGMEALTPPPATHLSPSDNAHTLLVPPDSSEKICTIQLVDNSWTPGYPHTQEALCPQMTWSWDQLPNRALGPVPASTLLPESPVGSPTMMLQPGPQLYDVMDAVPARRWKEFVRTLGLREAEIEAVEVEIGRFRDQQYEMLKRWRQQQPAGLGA

T3: marmoset DR3 (transiently expressed on HEK293 cells) (marmoset, UniProt U3ENN5 27-418)
T3 sequence: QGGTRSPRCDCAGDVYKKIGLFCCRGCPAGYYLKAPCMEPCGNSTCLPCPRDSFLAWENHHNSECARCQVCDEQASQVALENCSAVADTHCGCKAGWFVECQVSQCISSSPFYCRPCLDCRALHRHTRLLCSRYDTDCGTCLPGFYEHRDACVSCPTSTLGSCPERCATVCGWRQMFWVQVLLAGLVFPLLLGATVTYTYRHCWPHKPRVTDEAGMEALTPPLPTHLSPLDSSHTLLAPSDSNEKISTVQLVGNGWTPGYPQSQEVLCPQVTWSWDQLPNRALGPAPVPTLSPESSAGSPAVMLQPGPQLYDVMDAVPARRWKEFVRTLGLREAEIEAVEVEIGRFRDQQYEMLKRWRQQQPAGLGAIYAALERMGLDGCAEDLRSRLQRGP

T4: human DR3 with the death domain deleted (ΔM339-P417 of SEQ ID NO:1), expressed on CHOK1SV cells (human, UniProt Q93038 25-338)
T4 construct: also called truncated DR3; hDR3 expressing CHO cells
T4 sequence: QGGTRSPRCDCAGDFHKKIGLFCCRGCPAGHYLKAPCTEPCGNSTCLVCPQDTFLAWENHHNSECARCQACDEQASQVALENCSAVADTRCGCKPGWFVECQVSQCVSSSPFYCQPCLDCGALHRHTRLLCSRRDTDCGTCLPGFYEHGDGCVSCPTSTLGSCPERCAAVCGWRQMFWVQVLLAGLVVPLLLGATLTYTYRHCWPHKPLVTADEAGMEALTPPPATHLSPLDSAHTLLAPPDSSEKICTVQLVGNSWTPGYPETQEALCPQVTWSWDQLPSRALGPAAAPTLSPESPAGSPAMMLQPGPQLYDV


Columns and labels:
DR3 (CRD1)-Fc = biological target: T5, DR3 (CRD1)-Fc (human); test: SPR
T5 construct: Amino acids 25-71 of DR3 fused to the Fc domain of human IgG4; purified to exclude oligomers (mainly dimeric)
Source text: The extracellular moiety of DR3 is located at the aminoterminal portion of DR3 and is comprised of four TNF receptor cysteine-rich domains. Several fusion proteins were expressed and purified which contained parts of the extracellular domain of DR3 of increasing length fused to the Fc domain of a human IgG4. The DR3 proteins used for SPR analysis had been purified to exclude oligomerized material. These proteins were immobilized to a CM5 sensor chip using amine coupling chemistry. Binding of anti-DR3 antibodies termed 0070, 0072, 0073 and 0076, to the different DR3-Fc fusion proteins was tested by means of plasmon surface binding measurements on a Biacore T100 instrument (GE Healthcare). All of these antibodies inhibit binding of TL1A to DR3 in a FACS assay. These 4 antibodies bound to recombinant DR3 (CRD1)-Fc protein that contained only the aminoterminal CRD (SEQ ID NO:2) comprised of amino acids 25-71 of DR3.
The same analysis was also performed for some of the Fab fragments.

[1] = biological target: T1, human DR3 (full length, on cells); test: cell-based or functional assay
[2] = biological target: T2, cynomolgus DR3 (on HEK293 reporter …); test: cell-based or functional assay
[3] = biological target: T1, human DR3 (full length, on cells); test: cell-based or functional assay; remark: listed apart in the source
[4] = biological target: T2, cynomolgus DR3 (on HEK293 reporter …); test: cell-based or functional assay; remark: listed apart in the source
[5] = biological target: T3, marmoset DR3 (transiently expressed on …); test: cell-based or functional assay
[6] = biological target: T1, human DR3 (full length, on cells); test: cell-based or functional assay; remark: listed apart in the source
[7] = biological target: T4, human DR3 with the death domain deleted …; test: flow cytometry competition: Fab vs TL1A on hDR3-expressing CHO cells
DR3 (ECD)-Fc = biological target: T6, DR3 (ECD)-Fc (human); test: HX-MS with hDR3 ECD-Fc
T6 construct: ECD of DR3, a linker with a TEV cleavage site and the Fc part of human IgG4; dimeric fraction used; also called DR3-Fc; hDR3-Fc
Method: The Leap robot was equipped with two temperature controlled stacks maintained at 20° C. for buffer storage and HX reactions and maintained at 2° C. for storage of protein and quench solution, respectively. The Waters HDX system furthermore contained a temperature controlled chamber holding the pre- and analytical columns, and the LC tubing and switching valves at 1° C. A separately temperature controlled chamber holds the pepsin column at 25° C. […] The resulting peptides were trapped and desalted on a VanGuard pre-column BEH C18 1.7 μm (2.1×5 mm (Waters Inc.)). Subsequently, the valves were switched to place the pre-column inline with the analytical column, UPLC-BEH C18 1.7 μm (1×100 mm (Waters Inc.)), and the peptides separated using a 9 min gradient of 10-40% B delivered at 200 μl/min from the nanoAQUITY UPLC system (Waters Inc.). The mobile phases consisted of A: 0.1% formic acid and B: 0.1% formic acid in CH₃CN. The ESI MS data, and the separate elevated energy (MS^E) experiments were acquired in positive ion mode using a Synapt G2 mass spectrometer (Waters Inc.).
All HX reactions were carried out at 20° C. and contained […] hDR3 in the absence or presence of […] Fab thus giving a 5 fold molar excess of Fab. […]

[8] = biological target: T4, human DR3 with the death domain deleted …; test: FACS on DR3 expressing cells; competitor Mab 0107
[9] = biological target: T4, human DR3 with the death domain deleted …; test: FACS on DR3 expressing cells; competitor Mab 0121

Binder	binding result (DR3 (CRD1)-Fc)	IC50 at 40 ng/ml TL1A, I5 reporter cells [1] [nM]	IC50 at 40 ng/ml TL1A, Lyda20 reporter cells [2] [nM]	IC50 at 40 ng/ml TL1A, transient reporter HEK293 [3] [nM]	IC50 at 40 ng/ml TL1A, transient reporter HEK293 [4] [nM]	IC50 at 40 ng/ml TL1A, transient reporter HEK293 [5] [nM]	IC50, TNFalpha inhibition, TL1A-activated CD4+ T cells, donor 1 [6] [nM]	IC50, TNFalpha inhibition, TL1A-activated CD4+ T cells, donor 2 [6] [nM]	IC50, TNFalpha inhibition, average (n 22) [6] [nM]	max % inhibition of TNFalpha, donor 1 [6] [%]	max % inhibition of TNFalpha, donor 2 [6] [%]	IC50 [7] [nM]	max percentage inhibition [7] [%]	binding result (DR3 (ECD)-Fc)	molar ratio Mab/Fab from which the Fab inhibits [8]	molar ratio Mab/Fab from which the Fab inhibits fully [9]
0123 (chimeric Fab of 27F44, human IgG4 constant domain, hinge Cys->Ser) (Fab, V domains shown, murine variable domains, human IgG4 constant domain (IgG4-Ser)) VH: EVKLVESGGGLVKPGGSLKLSCSASGFAFSNYDMSWVRQTPEKRLEWVAAFSSDGYTFYPDSLKGRFTISRDNARNTLYLQMSSLGSEDTALYCCARHADYANYPVMDYWGQGTSVTVSS VL: DIVLAQSPASLLVSLGQRATISCRASKSVSTSGYSYMHWYQQKPGQPPKLLIYLASNLESGVPARFSGSGSGTDFTLNIHPVEEEDAATYYCQHSRELPLTFGAGTMLELKR	binds	0.188	236	0.33	99	0.323	0.301	0.32	0.208	83.5	75.9	0.443	80	–	–	–
0148 (chimeric Fab of 5F13, human IgG4 constant domain, hinge Cys->Ser) (Fab, V domains shown, IgG4-Ser, chimeric) VH: EVQLVESGGGLVKPGGSLKFSCAVSGFTFSSYVMSWVRQTPEKRLEWVAAISSDSTYTYYLDSVKGRFTISRDNAKNTLYLQMSSLRSEDTAMYYCARQTRSDAMDYWGQGTSVTVSS VL: DIVLTQSPASLAVSLGQRATISCRASESVDNYGNSFMHWYQQKPGQPPKLLIYRASNLESGIPARFSGSGSRTDFTLTINPVEADDVAIYYCQQSNEDPLTFGAGTKLELKR	–	–	–	–	–	–	–	–	–	9.5	-8.5	9.22	33	binds	100 Fab per Mab (molar ratio Mab/Fab 1:n)	3 Fab per Mab (molar ratio Mab/Fab 1:n)
